assay: yeast display, Sf9 membrane polyspecificity reagent, FACS + sequencing; frameworks hold sequencing errors
In short: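 Nanobodies from a synthetic yeast display library (Saccharomyces cerevisiae BJ5465), induced 36–48 hours with galactose, were stained 1 hour at 4 °C with 10% biotinylated, detergent-solubilized Sf9 membrane reagent, enriched on streptavidin microbeads, then FACS-sorted. Anti-HA (expression) and streptavidin (reagent binding) fluorescence set low and high (top ~1%) gates. Polyreactivity labels come from the gate of origin. Genes were colony-PCR amplified, MiSeq 2 × 250 sequenced and filtered by CDR length.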

Sequence	polyreactivity (PSR sort gate)
QVQLVESGGGLVQAGGSLRLSCAASGSTFETNAMGLYRQATRKERELVAAISYNGGSTYADSVKGRFTISRDNAKNTVYLHMNSLKPEDSAVYYCAAVRSPRGLGGYWGQGTQVTVAS	low polyreactivity
QVQLVESGGGLVQAGGSLRLSCAASGSTFETYAMGWYRQAPGKERELVAVITSDGSTNYADSVKGRFTISRDNAKNTVYLQMNSLKPEDTAGYYCNADYGFYVPAYPIYWIYEYWGQGTQVTVSS	low polyreactivity
QVQLVESGGGLVQAGGSLRLSCAASGSTFEYNAMGGYRQAPGKERELVASSTNYADSVKGRFTISRDNAKKTVYLQMTSLKPEDTAVYYCAREQGVNRNHDYWGQGTQVTVSS	low polyreactivity
QVQLVESGGGLVQAGGSLRLSCAASGSTFEYNAMGGYRQAPGKERELVASSTNYADSVKGRFTISRDNAKNTVYLQMNSLKPEDTAVYYCAREQGVNRNHDYWGQGTQVTVSS	low polyreactivity
QVQLVESGGGLVQAGGSLRLSCAASGSTFEYYAMGWYRQAPGKERELVAAISSGPSTTYADSVKGRFTISRDNAKNTVYLQMNSLKPEDTAVYYCAARTYPSYYVTFEYWGQGTQVTVSS	low polyreactivity
QVQLVESGGGLVQAGGSLRLSCAASGSTFEYYAMGWYRQAPGKERELVAAITGSGDNTYYADSVKGRFTISRDYAKNTVYLQMNSLKPEDTAVYYCAATLRVKGQYGRMYYWGQGTQVTVSS	high polyreactivity
QVQLVESGGGLVQAGGSLRLSCAASGSTFEYYAMGWYRQAPGKERELVAAITRRGGSTYYADSVKGRFTISRDNAKNTVYLQMNSLKPEDTAVYYCAAVPTQKSPRTHDFWGQGTQVTVSS	low polyreactivity
QVQLVESGGGLVQAGGSLRLSCAASGSTFFANAMGWYRQAPGKERELVAAITIGNTNYADSVKGRFTISRDNAKNTVYLQMNSLKPEDTAVYYCNASHVSHYRARDYWGQGTQVTVSS	low polyreactivity
QVQLVESGGGLVQAGGSLRLSCAASGSTFFEYTMGWYRQAPGKEREFVADIRGRDGSTSYADSVKGRFTISRDNAKNTVYLQMNSLKPEDTAVYYCAVGVYPSYRGPTFSTRRDYWGQGTQVTVSS	low polyreactivity
QVQLVESGGGLVQAGGSLRLSCAASGSTFFFYAMGWYRQAPGKERELVAAISRSGVSTYYADSVKGRFTISRDNAKNNVYLQMNSLKPEDTAVYYCAKGGSRDRYGYWGQGTQVTVSS	high polyreactivity
QVQLVESGGGLVQAGGSLRLSCAASGSTFFGNTMGRYRQAPGKERELVAAISRRGGSTYYADSVKGRFTISRDNAKNTVYLQMNSLKPEDTAVYYCAKYYHSGGYTPGKYDYWGQGTQVTVSS	high polyreactivity
QVQLVESGGGLVQAGGSLRLSCAASGSTFFGYAMGWYRQAPGKERELVAAIRYNGGHTYYADSVKGRFTISRDYAKNTVYLQMNRLKPEDTAVYYCAVDVVTSYYELTGSFNYWGQGTQVTVSS	low polyreactivity
QVQLVESGGGLVQAGGSLRLSCAASGSTFFGYAMGWYRQAPGKERELVAAITYTGDTTYYADSVKGRFTISRDNAKNTVYLQMNSLNPEDTAVYYCAAGGYPVYTGRGMDYWGQGTQVTVSS	low polyreactivity
QVQLVESGGGLVQAGGSLRLSCAASGSTFFHYAMGWYRQAPGKERELVAAIDSNGGSTYYADSVKGRFTISRDNAKNTVYLQMNSLKPEDTAVYYCAADDLAEFEYDYWGQGTQVTVSS	low polyreactivity
QVQLVESGGGLVQAGGSLRLSCAASGSTFFLYAMGCYRQAPGNERELVAAISWRGASTYYADSVNGSFTISRDNAKNSVYLQMNSLKPDDTAVYYCAADLLPLYDDWGQGTQVTVSS	high polyreactivity
QVQLVESGGGLVQAGGSLRLSCAASGSTFFLYAMGWYRQAPGKERELVAAITYTDGDTYYADSVKGRFTISRDIAKKTVYLQMNSLKPEDTAVYYCAADSWVQFDYWGQGTQVSVSS	low polyreactivity

Sequence	polyreactivity (PSR sort gate)
QVQLVESGGGLVQAGGSLRLSCAASGSTFFRNAMGWYRQAPGKERELVAAISKSGTSTYYADSVKGRFTISRDNAKNNVYLQMNSLKPEDTAVYYCAKYGFCYPQSYAYYYWGQGTQVTVSS	high polyreactivity
QVQLVESGGGLVQAGGSLRLSCAASGSTFFRYAMGWYRQAPGKEREFVAAITSSGGNTYYADSVKGRFTISRDNAKNTVYFQMNSLKPEDTAVYYCAAVWYSPYVKYNYWGQGTQVTVSS	low polyreactivity
QVQLVESGGGLVQAGGSLRLSCAASGSTFFRYAMGWYRQAPGKERELVAAISKSGASTYYADSVKGRFTISRDNAKNTVYLQMNSLKPEDTAVYYCNADVKKSSAREWQYGYDYWGQGTQVTVSS	low polyreactivity
QVQLVESGGGLVQAGGSLRLSCAASGSTFFRYAMGWYRQAPGKERELVAAISKSGGTTSYADSVKGRITISRDNAKNTVYLQMNSLKQEDTAVYYCAARVQHIYDWGQGTQVTVSS	high polyreactivity
QVQLVESGGGLVQAGGSLRLSCAASGSTFFRYAMGWYRQAPGKERELVAVINRGGSTYYADSVKGRFTISRDNAKNTVYLQMNSLKPEDTAVYYCAKRVFYPGAYRYYYWGQGTQVTVSS	high polyreactivity
QVQLVESGGGLVQAGGSLRLSCAASGSTFFSNAMGWYRQAPGKERELVATIRVGGGSTYADSVKGRFTISRDNAKNTVYLQMNSLKPEDTADYYCAADDSDTRYTRSRYGYWGQGTQVTVSS	low polyreactivity
QVQLVESGGGLVQAGGSLRLSCAASGSTFFSYAMGWYRQAPGKERELVAAITSNGGTTHYADSVKGRFTISRDNAKNTVYLQMNSLKPEDTADYYCAKAQGHVRGSRGLQGGRYDYWGQGTQVTVSS	low polyreactivity
QVQLVESGGGLVQAGGSLRLSCAASGSTFFTNAMGWYRQAPGKERELVAAINFRGSTYYADSVKGRFTISRDNAKNTVYLQMNSLKPEDTAVYYCATDRQRSYRTVRSPIFNYWGQGTQVTVSS	high polyreactivity
QVQLVESGGGLVQAGGSLRLSCAASGSTFFTNAMGWYRQAPGKERELVAGISYGGGRTYYADSVKGRFTISLDNAKNTVYLQMNRLKPEDTAVYYCNTVTSQAPYYSYVSWGQGTQVTVSS	high polyreactivity
QVQLVESGGGLVQAGGSLRLSCAASGSTFFTNAMGWYRQAPGKERELVATITWSGGSTYADSVKGRFTISRDNAKNTVYLQMNSLKPEDTAVYYCAAESSSYWGDLGGALWLYDYWGQGTQVTVSS	low polyreactivity
QVQLVESGGGLVQAGGSLRLSCAASGSTFFVNAMGWYRQAPGKERELVAAISTSGGRTYYADSVKGRFTISRDNAKNTVYLQMNSLKPEDTAVYYCAAFLRSPKGYYYWGQGTQVTVSS	high polyreactivity
QVQLVESGGGLVQAGGSLRLSCAASGSTFFVNAMGWYRQPPGKERELVAAISTSGGRTYYADSVKGRFTISRDNAKNTVYLQMNSLKPEDTAVYYCAAYLRSPKGYYYWGQGTQVTVSS	high polyreactivity
QVQLVESGGGLVQAGGSLRLSCAASGSTFFVYDMGWYRQAPGKERELVAAISISDGGTYYADSVKGRFTISRDNAKNTVYLQMNSQKPVDTAVYYCAADYSERYFRGYDYWGQGTQVTVSS	low polyreactivity
QVQLVESGGGLVQAGGSLRLSCAASGSTFFYSMGWYRKAPRKERELVAAISWIDSITYYADSVKGRFTISRDNAKNTVYLQMNSLKPEDIAVYYCAAEGQNEGYDYWVQGTQVTVSS	high polyreactivity
QVQLVESGGGLVQAGGSLRLSCAASGSTFFYYAMGWYRQAPGKERELVAAISRNGGSTYYADSVKGRFTISRDNAKNTVYLQMNSLKPEDTAVYYCNAYNLAGRYFDYWGQGTQVTVSS	high polyreactivity
QVQLVESGGGLVQAGGSLRLSCAASGSTFFYYAMVWYRQAPGKERELVAAISQSSASTYYADSVKGRFTISRDNAKNTVYLQMNSLKPEDTAVYYCAAARGYWWYDYWGQGTQVTVSS	high polyreactivity
